As usually defined, the koff is the first-order rate constant of dissociation. As a reminder, the Kd is the free concentration of one partner at which half of the binding sites on the other are occupied at equilibrium, for simple one-to-one binding. Lower therefore signals tighter binding. For orientation: kon means the second-order rate constant of association. As a reminder, the EC50 is the concentration that produces a half-maximal response.

The record followed here is EP4792830A2 (Pfizer Inc., dated 2026).

The chains are these.
T1: rabTFPI K1K2 (rabbit, limits assumed)
T1 construct: also called Rabbit TFPI K1K2
T1 chain: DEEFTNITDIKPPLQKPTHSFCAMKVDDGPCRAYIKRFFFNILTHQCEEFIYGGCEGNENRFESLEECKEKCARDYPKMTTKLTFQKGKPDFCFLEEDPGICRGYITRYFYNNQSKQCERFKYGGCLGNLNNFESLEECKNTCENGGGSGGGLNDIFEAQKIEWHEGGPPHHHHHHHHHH

B1: 2A8-200 (antibody, human IgG1, lambda, V domains shown)
VH: QVQLVESGGGLVQPGGSLRLSCAASGFTFRSYGMDWVRQAPGKGLEWVSSIRGSRSSTYYADSVKGRFTISRDNSKNTLYLQMNSLRAEDTAVYYCARLYRYWFDYWGQGTLVTVSS
VL: DIELTQPPSVSVAPGQTARISCSGDNLRNYYAHWYQQKPGQAPVVVIFYDVNRPSGIPERFSGSNSGNTATLTISGTQAEDEADYYCQSWWDGVPVFGGGTKLTVLG
notes: also called Anti-TFPI-2A8-200
B2: 2A8 (antibody, human IgG1, lambda, V domains shown)
VH: B1 VH with D35S, R55S, L99K
VL: B1 VL with F48Y, V51N, W91D
B3: hz4D8 (antibody, human IgG1, kappa, V domains shown)
VH: EVQLVESGGGLVQPGGSLRLSCAASGYTFTDYNLDWVRQAPGKGLEWVADINPINGATLYNQKFKGRFTISRDQAKNSLYLQMNSLRAEDTAVYYCARYYGDYDAMDYWGQGTLVTVSS
VL: DIQMTQSPSSLSASVGDRVTITCKASQDVHTAVAWYQQKPGKAPKLLIYWASTRHTGVPSRFSGSGSGTDYTLTISSLQPEDFATYYCQQHYTTPYTFGQGTKLEIKR
notes: humanized, human IgG1 3M / kappa; also called 4D8-Vk1.1 x VH1.4; 4D8 Vk 1.1 x VH 1.4
B4: hz4F36 (antibody, human IgG4 S228P, kappa, V domains shown)
VH: EVQLVESGGGLVKPGGSLRLSCAASGFTFSNYAMSWVRQTPEKRLEWVATISRSGSYSYFPDSVQGRFTISRDNAKNSLYLQMNSLRAEDTAVYYCARLGGYDEGDAMDSWGQGTTVTVSS
VL: DIVMTQTPLSLSVTPGQPASISCKSSQSLLESDGKTYLNWYLQKPGQSPQLLIYLVSILDSGVPDRFSGSGSGTDFTLKISRVEAEDVGVYYCLQATHFPQTFGGGTKVEIKR
notes: also called Novo2021; Anti-TFPI-4F36
B5: TFPI-118 (antibody, human IgG1, lambda, V domains shown)
VH: EVQLVESGGGLVQPGRSLRLSCAVSGLTIDNYAMQWVRQAPGKGLEWVSGISGNSRSIGYADSVKGRFTISRDNAKNSLYLQMNSLRAEDTALYYCAIFLHESDYWGQGTLVTVSS
VL: QSVLTQPPSASGTPGQRVTISCSGSTSNIGTMYVHWYQQLPGTAPKLLIYRNNHRPSGVPDRFSGSKSGTSASLAISGLRSEDEADYYCLAWDDTLRAYVFGTGTKVTVLG
notes: Germlined variant of TFPI-24: VL of TFPI-113 paired with VH of TFPI-108
B6: TFPI-106 (antibody, human IgG1, lambda)
heavy: not shown
light: QSVLTQPPSVSGAPGQRVTISCTGSSSNIGAGYDVHWYQQLPGTAPKLLIYGNSNRPSGVPDRFSGSKSGTSASLAITGLQAEDEADYYCQSYDSSLSGSGVFGGGTKLTVLGQPKAAPSVTLFPPSSEELQANKATLVCLISDFYPGAVTVAWKADSSPVKAGVETTTPSKQSNNKYAASSYLSLTPEQWKSHRSYSCQVTHEGSTVEKTVAPTECS
notes: IgG1-3M
B7: TFPI-24 (antibody, human IgG1, lambda, V domains shown)
VH: B5 VH with L11S, A40R, F68L, M83I, N84D, E89D
VL: B5 VL with A10V, Q39H, L40V, A72G
notes: Phage-derived, human IgG1-3M; also called mAb-TFPI-24; clone 24
B8: 7A4.D9 (antibody, V domains shown)
VH: EVQLQQSGPELVKPGASVKMSCKASGYTFTSYVMHWVKQKPGQGLEWIGYLNPYNDGTKYNEKFKGKASLISDKSSSTVYMELSSLTSEDSAVYYCATTLLYAMDYWGQGSSVTVSS
VL: DIVLTQSPASLAVSLGQRATISCRASKSVSTSGYTYMHWYQQKPGQPPKLLIYLASNLESGVPARFSGSGSGTDFTLNIHPVEEEDAAAYYCQHIRELPFTFGSGTKLEIKA
notes: Mouse hybridoma antibody
B9: 6B7.c5 (antibody, human IgG1, kappa, V domains shown)
VH: EVLLQQSGPELVKPGSSVKIPCKASGYTFTDYTMDWVKQSHGKSLEWIGDINPSNGGSIYNRKFKGKATLTVDKSSSTAYMELRSLTSEDTAVYYCARMHYNYDGFPYWGQGTLVTVSA
VL: DIVMTQSHKFMSTSVGDRVSITCKASQDVITAVAWYQQKPGQSPKLLIYWASTRHTGVPVRFTGSGSGTDYTLTIISVQAEDLALYYCQQHYSTPYTFGGGTKLEIKA
notes: Mouse hybridoma antibody
B10: 4D8.b1 (antibody, mouse IgG1, kappa)
heavy: EVLLQQSGPELVKPGASVKIPCKASGYTFTDYNLDWVKQSHGKSLEWIGDINPINGATLYNQKFKGKATLTVDQSSSTAYMELRSLTSEDTAVYYCSIYYGDYDAMDYWGQGASVTVSSAKTTPPSVYPLAPGSAAQTNSMVTLGCLVKGYFPEPVTVTWNSGSLSSGVHTFPAVLQSDLYTLSSSVTVPSSTWPSETVTCNVAHPASSTKVDKKIVPRDCGCKPCICTVPEVSSVFIFPPKPKDVLTITLTPKVTCVVVDISKDDPEVQFSWFVDDVEVHTAQTQPREEQFNSTFRSVSELPIMHQDWLNGKEFKCRVNSAAFPAPIEKTISKTKGRPKAPQVYTIPPPKEQMAKDKVSLTCMITDFFPEDITVEWQWNGQPAENYKNTQPIMDTDGSYFVYSKLNVQKSNWEAGNTFTCSVLHEGLHNHHTEKSLSHSPGK
light: DIVMTQSHKFMSTSVGDRVSITCKASQDVHTAVAWYQQKPGQSPRLLIYWASTRHTGVPDRFTGCGSGTDYTLTISSVQAEDLALYYCQQHYTTPYTFGGGTKLEMKADAAPTVSIFPPSSEQLTSGGASVVCFLNNFYPKDINVKWKIDGSERQNGVLNSWTDQDSKDSTYSMSSTLTLTKDEYERHNSYTCEATHKTSTSPIVKSFNRNEC
notes: also called mouse 4d8.b1; TFPI 4D8
B11: 4D8-Vk1.0 x VH1.0 (antibody, human IgG1, kappa, V domains shown)
VH: B3 VH with Q74N
VL: B3 VL with Y71F
notes: Humanized 4D8 variant
B12: 4D8-Vk1.0 x VH1.1 (antibody, human IgG1, kappa, V domains shown)
VH: B3 VH with A49G, F68A, R72V, L79A
VL: B3 VL with Y71F
notes: Humanized 4D8 variant
B13: 4D8-Vk1.0 x VH1.3 (antibody, human IgG1, kappa, V domains shown)
VH: B3 VH with F68A, Q74N
VL: B3 VL with Y71F
notes: Humanized 4D8 variant
B14: 4D8-Vk1.0 x VH1.2 (antibody, human IgG1, kappa, V domains shown)
VH: B3 VH with A49G, Q74N
VL: B3 VL with Y71F
notes: Humanized 4D8 variant
B15: 4D8-Vk1.0 x VH1.4 (antibody, human IgG1, kappa, V domains shown)
VH: B3 VH
VL: B3 VL with Y71F
notes: Humanized 4D8 variant
B16: 4D8-Vk1.1 x VH1.3 (antibody, human IgG1, kappa, V domains shown)
VH: B3 VH with F68A, Q74N
VL: B3 VL
notes: Humanized 4D8 variant
B17: 4D8-Vk1.1 x VH1.0 (antibody, human IgG1, kappa, V domains shown)
VH: B3 VH with Q74N
VL: B3 VL
notes: Humanized 4D8 variant
B18: 4D8-Vk1.1 x VH1.1 (antibody, human IgG1, kappa, V domains shown)
VH: B3 VH with A49G, F68A, R72V, L79A
VL: B3 VL
notes: Humanized 4D8 variant
B19: 4D8-Vk1.1 x VH1.2 (antibody, human IgG1, kappa, V domains shown)
VH: B3 VH with A49G, Q74N
VL: B3 VL
notes: Humanized 4D8 variant

Changes are numbered by the printed parent chain.

The target of the first assay is T2, humTFPI K1K2 (human).
T2 construct: Biotinylated on the AviTag for ELISA; also called Human TFPI alpha K1K2; humTFPI K1K2-aviHis10
The assay is described as follows: SPR, antibody ligand, TFPI analyte. Background: Surface plasmon resonance follows binding to a sensor surface in real time, without labels.
With B1, the koff worked out at 0.00381 s⁻¹.

The target in the next assay is T3, cynTFPI K1K2 (cynomolgus monkey).
T3 construct: also called Cynomolgus Monkey TFPI K1K2; cyno TFPI K1K2
The assay is described as follows: SPR, antibody ligand, TFPI analyte.
B2 yielded a koff of 0.0306 s⁻¹.

In another assay the target is T1, rabTFPI K1K2. The assay is described as follows: SPR, antibody ligand, TFPI analyte.
For B2, the dissociation constant (Kd) turned out to be 1.69 nM, the koff was determined as 0.00123 s⁻¹ and the on-rate constant (kon) turned out to be 730000 M⁻¹ s⁻¹.

B1: binding was put at a Kd of 0.145 nM, the koff came out at 0.000277 s⁻¹ and the kon came out at 1.92e+06 M⁻¹ s⁻¹.

As for B3, the Kd came out at 0.502 nM, the koff was found to be 0.0029 s⁻¹ and the on-rate (kon) came out at 3.16e+06 M⁻¹ s⁻¹.

B4: the Kd came out at 1.81 nM, the koff worked out at 0.0076 s⁻¹ and the on-rate (kon) was determined as 4.2e+06 M⁻¹ s⁻¹.

Regarding B5, the Kd came to 5.79 nM.

On to B6, for which the Kd was found to be 4.25 nM.

A further assay deals with T1, rabTFPI K1K2. The assay is described as follows: SPR (summary table).
B1 gave a Kd of 0.145 nM.

Molecule B3 came in with an equilibrium dissociation constant (Kd) of 0.502 nM.

B4: the dissociation constant Kd stood at 1.81 nM.

B5 had a Kd of 5.79 nM.

Turning to B6, the equilibrium dissociation constant (Kd) was found to be 4.25 nM.

A further assay has as its target T2, humTFPI K1K2. Description: SPR, antibody ligand, TFPI analyte. This is another data set of the same source.
For the molecule B7, the affinity, expressed as Kd, was 3.68 nM; the koff was 0.00971 s⁻¹; the kon is 918000 M⁻¹ s⁻¹.

Another assay has as its target T1, rabTFPI K1K2. Description: SPR, antibody ligand, TFPI analyte. This is another data set of the same source.
In turn, B8 registered a Kd of 3.55 nM, an off-rate constant (koff) of 0.0188 s⁻¹ and a kon of 5.3e+06 M⁻¹ s⁻¹.

As to B9, binding was put at a Kd of 4.95 nM, the koff worked out at 0.00564 s⁻¹ and the kon is 1.14e+06 M⁻¹ s⁻¹.

On to B10, for which the Kd amounted to 0.63 nM, the koff came to 0.00126 s⁻¹ and the association rate constant (kon) turned out to be 2.01e+06 M⁻¹ s⁻¹.

In the next assay the target is T1, rabTFPI K1K2. Description: ELISA, TFPI on streptavidin plate. A general note: An ELISA detects its analyte on a solid surface through an enzyme-linked reagent.
B11: a half-maximal response (EC50) required 0.0785 nM.

In turn, B12 came in with an EC50 of 0.0705 nM.

For B13, the concentration giving a half-maximal response (EC50) came out at 0.0556 nM.

B14 yielded an EC50 of 0.0422 nM.

The molecule B3 yielded an EC50 of 0.0716 nM.

With B15, a half-maximal response (EC50) required 0.0426 nM.

The molecule B16 displayed an EC50 of 0.0511 nM.

Molecule B17 had a concentration giving a half-maximal response (EC50) of 0.0451 nM.

Molecule B18 had an EC50 of 0.0788 nM.

For the molecule B19, it took 0.0783 nM to reach a half-maximal effect (EC50).

A further assay addresses T1, rabTFPI K1K2. Description: ELISA, TFPI on streptavidin plate. The source holds these as a separate data set.
Turning to B8, it took 0.0887 nM to reach a half-maximal effect (EC50).

Turning to B9, the EC50 came to 0.129 nM.

In the case of B10, the EC50 came to 0.0976 nM.
